Positions of bridges follow the written chain, without caps; N, C: chain ends. No end group written: not given here.
target: T1, hu-IL-2Rβ subunit (human, UniProt P14784 27-240, limits assumed); assay: phage ELISA competition assay
T1 construct: also called human interleukin-2 receptor subunit β; CD122
T1 sequence (looked up): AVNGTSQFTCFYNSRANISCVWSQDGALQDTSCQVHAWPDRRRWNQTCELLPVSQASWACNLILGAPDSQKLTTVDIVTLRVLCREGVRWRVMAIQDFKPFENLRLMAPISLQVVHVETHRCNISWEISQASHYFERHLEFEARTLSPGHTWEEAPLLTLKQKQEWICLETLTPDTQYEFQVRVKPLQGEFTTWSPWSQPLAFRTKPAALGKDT

Row | Binder | IC50
1 | AYYPCELAQLGELCDLYNI [SEQ ID NO 473] | < 100 µM
2 | AQVRREWYPCWMAQLGELCDLT (disulfide 10-19 (inferred)) [SEQ ID NO 109] | < 100 µM
3 | NDHTAWWPCYFAQVGDLCDLV [SEQ ID NO 475] | < 100 µM
4 | WWPCEIAQIGELCDLEWVRHAE [SEQ ID NO 476] | < 100 µM
5 | WWPCDFAQIGELCDLGPRFTGE [SEQ ID NO 477] | < 100 µM
6 | RDWWLPCEFALIGELCDLERSW [SEQ ID NO 478] | < 100 µM
7 | MRTTFWYDCYIAQVGELCDF (not fully specified (bridges); cysteine pairing not given here) [SEQ ID NO 479] | < 100 µM
8 | SWHAETWYPCWLAQVGELCDLD [SEQ ID NO 480] | < 100 µM
9 | EWFHDCFLAKVGDLCDLFLW [SEQ ID NO 481] | < 100 µM
10 | KWFHDCFLAKVGDLCDLFLW [SEQ ID NO 533] | < 100 µM
11 | SGKTQMWNPCYVAKVGELCDLV [SEQ ID NO 482] | < 100 µM
12 | DKAGPNFYPCWLAHVGELCDQA [SEQ ID NO 483] | < 100 µM
13 | AGFRGRWWPCEYAQVGELCDLE [SEQ ID NO 484] | < 100 µM
14 | ETEQMSWYPCWVAQLWELCDLD (disulfide 10-19 (inferred)) [SEQ ID NO 110] | < 100 µM
15 | WFPCWLAKVGELCDRDDLAGPS [SEQ ID NO 485] | < 100 µM
16 | WWPCEWARIGELCDLE [SEQ ID NO 486] | < 100 µM
17 | KGSSWFPCYFAQVGDLCDLY [SEQ ID NO 487] | < 100 µM
18 | WYPCWLAQVGELCDRE [SEQ ID NO 488] | < 100 µM
19 | RGVYFPCWLAKVGDLCDSDEF [SEQ ID NO 489] | < 100 µM
20 | RAWWWPCELAQVGELCDLEPSS [SEQ ID NO 490] | < 100 µM
21 | WYPCWLAKVGELCDQE [SEQ ID NO 491] | < 100 µM
22 | RYVPDCLKAQVGDLCDFFAW [SEQ ID NO 492] | < 100 µM
23 | WWPCYLAQIGELCDLV [SEQ ID NO 493] | < 100 µM
24 | WYPCWMAKVGELCDME [SEQ ID NO 494] | < 100 µM
25 | WLPCWLAKLGELCDLEWLPCW [SEQ ID NO 111] | < 100 µM
26 | QITDSGWYPCWVAKVGELCDMD [SEQ ID NO 495] | < 100 µM
27 | YRWWYPCDIAQVGELCDLDYLL [SEQ ID NO 496] | < 100 µM
